Measurements: paper PMC6825360, “Chaetomella raphigera β-glucosidase D2-BGL has intriguing structural features and a high substrate affinity that renders it an efficient cellulase supplement for lignocellulosic biomass hydrolysis” (Biotechnology for Biofuels, 2019)
Each block holds one molecule with its values, some of them ahead of it.

Key:
[1] = target: T1, D2-BGL (Chaetomella raphigera, UniProt A0A068FT77); experiment: inhibition of pNPG hydrolysis at […] glucose, absorbance of pNP at […] nm, non-linear fit; type: biochemical; details: read-out: Ki glucose; substrate pNPG; pH 5 (50 mM sodium acetate), 55 °C; product inhibition
T1 construct: secreted recombinant from Pichia pastoris SMD1168 (pGAPZalphaC), His-tagged (strain #5 has an extra N-terminal 6-His), IMAC purified, N-hyperglycosylated, smear 95-180 kDa; TIM barrel 1-307, alpha/beta sandwich 319-521, FnIII 573-712
T1 sequence (A0A068FT77 1-722): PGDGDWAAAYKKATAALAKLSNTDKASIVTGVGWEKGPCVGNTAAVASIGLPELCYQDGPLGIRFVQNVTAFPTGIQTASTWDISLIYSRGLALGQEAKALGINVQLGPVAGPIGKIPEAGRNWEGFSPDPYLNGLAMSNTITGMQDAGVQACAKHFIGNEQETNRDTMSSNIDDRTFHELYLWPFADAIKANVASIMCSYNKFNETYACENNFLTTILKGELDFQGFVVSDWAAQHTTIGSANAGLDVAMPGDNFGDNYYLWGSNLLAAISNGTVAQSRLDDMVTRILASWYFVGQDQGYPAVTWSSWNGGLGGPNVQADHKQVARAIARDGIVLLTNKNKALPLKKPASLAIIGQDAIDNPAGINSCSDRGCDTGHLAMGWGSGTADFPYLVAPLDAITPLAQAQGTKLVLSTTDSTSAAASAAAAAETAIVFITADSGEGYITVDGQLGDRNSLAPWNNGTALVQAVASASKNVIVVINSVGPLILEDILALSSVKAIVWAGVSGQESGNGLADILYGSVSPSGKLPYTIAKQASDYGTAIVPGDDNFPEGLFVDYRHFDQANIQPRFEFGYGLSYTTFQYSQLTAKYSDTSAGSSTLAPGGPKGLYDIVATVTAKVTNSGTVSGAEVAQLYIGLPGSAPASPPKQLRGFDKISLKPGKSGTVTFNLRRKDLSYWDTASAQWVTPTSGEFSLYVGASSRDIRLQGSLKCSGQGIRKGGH

[2] = target: D2-BGL (Chaetomella raphigera, UniProt A0A068FT77, INS255S/N255I, form not given); experiment: cellobiase assay, glucose release, crude secreted enzyme; type: biochemical; details: crude enzyme from P. pastoris culture; mutant N255* (N255 replaced by two residues I-S); wild type measured beside it 1.45 mM
[3] = cellobiase assay after non-denaturing deglycosylation; details: glycan lost; control: non-deglycosylated enzyme
[4] = specific activity of purified enzyme; details: glycan lost; control: wild type
[5] = productivity from culture supernatant activity, P. pastoris; details: glycan lost; control: wild type
[6] = substrate: O=[N+]([O-])c1ccc(O[C@@H]2O[C@H](CO)[C@@H](O)[C@H](O)[C@H]2O)cc1; experiment: purified protein; details: pH 5 (50 mM sodium acetate), 55 °C, 10 min

- Ki [1]: 2420 ± 690 µM
Molecule: OC[C@H]1OC(O)[C@H](O)[C@@H](O)[C@@H]1O (stereo partly drawn) [glucose]

- Km [2]: 2840 µM
Molecule: OC[C@H]1O[C@@H](O[C@H]2[C@H](O)[C@@H](O)C(O)O[C@@H]2CO)[C@H](O)[C@@H](O)[C@@H]1O (stereo partly drawn) [cellobiose]

B1: β-glucosidase D2-BGL: Endo H (protein)
parent chain: PGDGDWAAAYKKATAALAKLSNTDKASIVTGVGWEKGPCVGNTAAVASIGLPELCYQDGPLGIRFVQNVTAFPTGIQTASTWDISLIYSRGLALGQEAKALGINVQLGPVAGPIGKIPEAGRNWEGFSPDPYLNGLAMSNTITGMQDAGVQACAKHFIGNEQETNRDTMSSNIDDRTFHELYLWPFADAIKANVASIMCSYNKFNETYACENNFLTTILKGELDFQGFVVSDWAAQHTTIGSANAGLDVAMPGDNFGDNYYLWGSNLLAAISNGTVAQSRLDDMVTRILASWYFVGQDQGYPAVTWSSWNGGLGGPNVQADHKQVARAIARDGIVLLTNKNKALPLKKPASLAIIGQDAIDNPAGINSCSDRGCDTGHLAMGWGSGTADFPYLVAPLDAITPLAQAQGTKLVLSTTDSTSAAASAAAAAETAIVFITADSGEGYITVDGQLGDRNSLAPWNNGTALVQAVASASKNVIVVINSVGPLILEDILALSSVKAIVWAGVSGQESGNGLADILYGSVSPSGKLPYTIAKQASDYGTAIVPGDDNFPEGLFVDYRHFDQANIQPRFEFGYGLSYTTFQYSQLTAKYSDTSAGSSTLAPGGPKGLYDIVATVTAKVTNSGTVSGAEVAQLYIGLPGSAPASPPKQLRGFDKISLKPGKSGTVTFNLRRKDLSYWDTASAQWVTPTSGEFSLYVGASSRDIRLQGSLKCSGQGIRKGGH
- enzymatic_activity, other: specific activity [3]: no change, 185 ± 21 vs 209 ± 14

B2: β-glucosidase D2-BGL: N68Q (protein)
parent chain: PGDGDWAAAYKKATAALAKLSNTDKASIVTGVGWEKGPCVGNTAAVASIGLPELCYQDGPLGIRFVQNVTAFPTGIQTASTWDISLIYSRGLALGQEAKALGINVQLGPVAGPIGKIPEAGRNWEGFSPDPYLNGLAMSNTITGMQDAGVQACAKHFIGNEQETNRDTMSSNIDDRTFHELYLWPFADAIKANVASIMCSYNKFNETYACENNFLTTILKGELDFQGFVVSDWAAQHTTIGSANAGLDVAMPGDNFGDNYYLWGSNLLAAISNGTVAQSRLDDMVTRILASWYFVGQDQGYPAVTWSSWNGGLGGPNVQADHKQVARAIARDGIVLLTNKNKALPLKKPASLAIIGQDAIDNPAGINSCSDRGCDTGHLAMGWGSGTADFPYLVAPLDAITPLAQAQGTKLVLSTTDSTSAAASAAAAAETAIVFITADSGEGYITVDGQLGDRNSLAPWNNGTALVQAVASASKNVIVVINSVGPLILEDILALSSVKAIVWAGVSGQESGNGLADILYGSVSPSGKLPYTIAKQASDYGTAIVPGDDNFPEGLFVDYRHFDQANIQPRFEFGYGLSYTTFQYSQLTAKYSDTSAGSSTLAPGGPKGLYDIVATVTAKVTNSGTVSGAEVAQLYIGLPGSAPASPPKQLRGFDKISLKPGKSGTVTFNLRRKDLSYWDTASAQWVTPTSGEFSLYVGASSRDIRLQGSLKCSGQGIRKGGH
- enzymatic_activity, other: specific activity [4]: no change, 216 ± 23 vs 197 ± 3
- expression_or_secretion, other: productivity [5]: decreases, 4.5 vs 9.6, N68Q mutant (0.98 ± 0.22 U/mL) ... relative to that of wild-type (1.89 ± 0.18 U/mL)

B3: D2-BGL (Chaetomella raphigera) (protein)
chain: PGDGDWAAAYKKATAALAKLSNTDKASIVTGVGWEKGPCVGNTAAVASIGLPELCYQDGPLGIRFVQNVTAFPTGIQTASTWDISLIYSRGLALGQEAKALGINVQLGPVAGPIGKIPEAGRNWEGFSPDPYLNGLAMSNTITGMQDAGVQACAKHFIGNEQETNRDTMSSNIDDRTFHELYLWPFADAIKANVASIMCSYNKFNETYACENNFLTTILKGELDFQGFVVSDWAAQHTTIGSANAGLDVAMPGDNFGDNYYLWGSNLLAAISNGTVAQSRLDDMVTRILASWYFVGQDQGYPAVTWSSWNGGLGGPNVQADHKQVARAIARDGIVLLTNKNKALPLKKPASLAIIGQDAIDNPAGINSCSDRGCDTGHLAMGWGSGTADFPYLVAPLDAITPLAQAQGTKLVLSTTDSTSAAASAAAAAETAIVFITADSGEGYITVDGQLGDRNSLAPWNNGTALVQAVASASKNVIVVINSVGPLILEDILALSSVKAIVWAGVSGQESGNGLADILYGSVSPSGKLPYTIAKQASDYGTAIVPGDDNFPEGLFVDYRHFDQANIQPRFEFGYGLSYTTFQYSQLTAKYSDTSAGSSTLAPGGPKGLYDIVATVTAKVTNSGTVSGAEVAQLYIGLPGSAPASPPKQLRGFDKISLKPGKSGTVTFNLRRKDLSYWDTASAQWVTPTSGEFSLYVGASSRDIRLQGSLKCSGQGIRKGGH
- Km [6]: 200 ± 100 µM
- Vmax [6]: 419 µmol/min/mg

B4: β-glucosidase D2-BGL: T431A (protein)
parent chain: PGDGDWAAAYKKATAALAKLSNTDKASIVTGVGWEKGPCVGNTAAVASIGLPELCYQDGPLGIRFVQNVTAFPTGIQTASTWDISLIYSRGLALGQEAKALGINVQLGPVAGPIGKIPEAGRNWEGFSPDPYLNGLAMSNTITGMQDAGVQACAKHFIGNEQETNRDTMSSNIDDRTFHELYLWPFADAIKANVASIMCSYNKFNETYACENNFLTTILKGELDFQGFVVSDWAAQHTTIGSANAGLDVAMPGDNFGDNYYLWGSNLLAAISNGTVAQSRLDDMVTRILASWYFVGQDQGYPAVTWSSWNGGLGGPNVQADHKQVARAIARDGIVLLTNKNKALPLKKPASLAIIGQDAIDNPAGINSCSDRGCDTGHLAMGWGSGTADFPYLVAPLDAITPLAQAQGTKLVLSTTDSTSAAASAAAAAETAIVFITADSGEGYITVDGQLGDRNSLAPWNNGTALVQAVASASKNVIVVINSVGPLILEDILALSSVKAIVWAGVSGQESGNGLADILYGSVSPSGKLPYTIAKQASDYGTAIVPGDDNFPEGLFVDYRHFDQANIQPRFEFGYGLSYTTFQYSQLTAKYSDTSAGSSTLAPGGPKGLYDIVATVTAKVTNSGTVSGAEVAQLYIGLPGSAPASPPKQLRGFDKISLKPGKSGTVTFNLRRKDLSYWDTASAQWVTPTSGEFSLYVGASSRDIRLQGSLKCSGQGIRKGGH
- enzymatic_activity, other: specific activity [4]: no change, 189 ± 11 vs 197 ± 3
- expression_or_secretion, other: productivity [5]: decreases, 3.2 vs 9.6, T431A mutant (0.61 ± 0.05 U/mL)
